Experiment: yeast display, Sf9 membrane polyspecificity reagent, FACS + sequencing; frameworks hold sequencing errors
Outline: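 Galactose induction of a Saccharomyces cerevisiae BJ5465 synthetic nanobody display library ran 36–48 hours. The cells were then stained for 1 hour at 4 °C with 10% biotinylated, detergent-solubilized Sf9 membrane reagent, pulled down on streptavidin microbeads and FACS-sorted into low and high (top ~1%) gates on expression and reagent-binding fluorescence. Labels for polyreactivity follow the gate of origin.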

Sequence | polyreactivity (PSR sort gate)
QVQLVESGGGLVQAGGILRLSCAASGSIFSPNAKGWYRQAPGKVRQLVAAIDFSAGSTYYADSVKGRFTISRDNAKNTVYLQMHSLKPEDTAVYYCAADYYYSYCYWFSSSYGYWGPGTQVTVSS | high polyreactivity
QVQLVESGGGLVQAGGSLRLSCAASGSTFGTNVMGWYRQAPGKERELVAAISNGGSTNYADSVKGRFTISRDNAKNTVYLQMNSLKPEDTAVYYCEYDYWGQGTQVTVSS | low polyreactivity
QLQLVESGGGLVQAGGSLRLSCAAAGSTFRLYAMGWYRPAPGKERKLVAAISGRGDRTYYADSVKGRFTISRDNAKNAVYLQMISLKPEDTAVYSCAAKSGFIPYDYWGQGTQVTVSS | high polyreactivity
QVQLVESGVCLVQAGGSLRLSCAATGFTLSTNALGWYRQEPGKESELVAVISGGDSTSYADSVKGRFTISRDNAKNTVYLQMNSLKPEETAVYYCAKVYRRYTSGYDYWGQGTQVTVSS | high polyreactivity
QVQLVESGGGLVQAGGSLRLSCAASGSIFYRYAMGWYRQAPGKERELVAAISYNGGRTYYADSVKGRFTISRDNAKNTVYLQMNSLKPEDTAVYYCNAAGRDDAYDYWGQGTQVTVSS | high polyreactivity
QVQLVESGGGIVQAGGSLRLRCAATASIYVHYAMGWYIQAPGKETDLVAAIRWRGGSTNYADSVKGRFTISRDNAKNTVDLQMNSLKQEDTAVSYCNARHPASGDLYRMDYWGPGTQVTVSS | low polyreactivity
QVQLVESGGGLVQAGGSLRFSCAASGIIFQRNDMGLYRQAPGKERELVANIRDGGITYADSVKGRFTLSRDNAKNTFYLQMNSLKPEDTAVYYCAADYHTPSSFAPIELYDYWGQGTQVTVSS | low polyreactivity
QVQLVESGGGLVQAGGSLRLSCAASGSIFTVNAMGWYRQAPGKERELVARISWSGGSTYYADSVKGRFTISRDNAKNTVYLQMNSLKPEDTAVYYCAKGFYEGVPSYGYDYWGQGTQVTVSS | low polyreactivity
QVQLVDSGGGLVQAGGSLRLSCAASGRTFKRYDMGWYRQAPRKEREFVAAISWTGGSTYYADTVKGRFTISRDNEKNTVYLQMNSLKPEDTAVYYCARKFLWKGFDYWGQGTQVTVSS | low polyreactivity
QVQLVESGGGLVQAGGSLRLSCAASGSIFTLYAMGWYRQAPGKERELVADITFSGGTTYYADSVKGRFTISRDNAKNTVYLQMNSLKPEDTAVYYCATTYYQLYVQGYEYWGQGTQVTVSS | high polyreactivity
QVQLVESGGGLVQAGGSLRLSCAASGYNFWYNGMGWYRQAPGKERELVAAITSSSGTTYYADSVKGRFTISRDNAKTTVYLQMNSLKPVDTSVYYFNAVLSSNTQCRYPGDYWGQGTQVTVSS | low polyreactivity
QVQLVESGGGLVQAGGSLRLSCAASGSTFGYNGMGWYRQAPGKERELVAAISGGARTYADSVKGRFTISRDNAKNTVYLQMNSLKPEDTAVYYCAADSPVSVTADDGYWGQGTQVTVSS | low polyreactivity
QVQLVESGGGLVQAGGSLRLSCAASGSIFTYYAMGWYRQAPGKERELVAGISGGGRTNYADSVKGRFTISRDNAKNTVYLQMNSLKPEDTAVFYCAADWSFSTIRYWRFDSDYWGQGTQVTVSS | high polyreactivity
QVQLVESGGGLVQAGGSLRLSCAASGLTLRRYAMGWYIQAPGKERELVASINSGTSTKYADSVKGRFTISRDNAKNTVYLQMKSLKPEDTALYYCGAAVYFPTAGSRRAYYYWGQGTQGTVSS | high polyreactivity
QVQLVESGGGLVQAGGSLRLSCAASGYTFPRYAMGWYRQAPGKERELVAAISRRGGSTYYADSVKGRFTISRDNAKNTVYLQMNSLKPEDTAVYYCAAATRQGYYSGSTRYDYWGQGTQVTVSS | high polyreactivity
QVQLVESGGGLVQAGGSLRLSCAASGSIFDNNAMGSYRQAPGKERELVAGINWDDGSTYYADSVKGRFTISRDNAKNTVHLQMISLKPEETAVYYCARDVYVYRWNDFWAVWTWYDYWGQGTQVTVSS | low polyreactivity
QVQLVESGGGLVQAGGSLRLSCAASGLIFGEYDMGWYRQAPGKERELVAAISDRGTSTYYADSVKGRFTISRDNAKNTVYLQMNSLKPEDTAVYYCATDRNYYYSWEYDYWGQGTQVTVSS | low polyreactivity
QVQLVESGGGLVQAGGSLRLSCAASGSIFDYNAMGWYRQAPGKERELVASIRWSGGRTYYADSVKGRFTISRDNAKNTVYLQMNSLKPEDTAVYYCNKGLFSTGNIPYYLIVYLEYNYWGQGTQVTVSS | low polyreactivity
QVQLVESGGGLVQAGGSLSLSCAASGSIFASYVMGWYRPAPGKEREMVAGIDTSGGSTFYADSVKGRFTISRDNAKNTVYLQMNSLKPEDTAVYYCAADTWYRGRWEFDYWGQGTQVTVSS | low polyreactivity
QVQLVESGGGLVQAGGSLRLSCAASGRIFWWYSMGWYRQAPVKERELVAAISTGSRTYYADSVKGRFTISRDNAKNTVFLQMNSLKPEDTAVYYCVADGLYSVSRSSIFEYWGQGTQVTVSS | low polyreactivity
QVQLVESGGGLVQAGGSLRLICAASGRTFYVYAMGWYRQAPGKEREFVARITSNGGSTTYADSVKGRFTISRDNAKNTVYLQMNSLKPDDTAVYYCNADYDPEDMDYWGQGTQVTVSS | low polyreactivity
QVQLVESGGGLVQAGGSLRLSCAASGRIFYWYAMGWYRQAPGKEREFVAAITSSGGSTYYADSVKGRFTISRDNAKNTVDLQMNSLKPEDTAVYYCAARNPYYTSRGYWGQGTQVTVSS | high polyreactivity
QFQLVESGGGLVQAGGSLRLSCAASGITFGTNAMGWYRQATGKERELVARISSSDASTYYADSVKGRFTISRDNGKNTVYLQMNSLKPEDTAVYYCAADIYVTGYFRYDYWGQGTQVTVSS | low polyreactivity
QVQLVESGGGLVQAGGSLRLSCAASGSIFEGNAMGWDRQAPGKERELVASISGDGSTNYADSVKGRFTISRDNAKITVYLQMNCLKPEDTAVYYCAASFRWYGTVRYPYEMYYWGQGTQVTVSS | low polyreactivity
QVQLVESGGGLVQAGGSLRLSCAASGGTISYYAMGRYRQAPRKERELVAAINWSGASTYYADSVKGRFTNSRDNAKYTVYLELNSLKPEETAVYYCAADSIQYTARPYDYWGQGTQVTVSS | low polyreactivity
QVQLVESGGGLVQAGGSLRLSCAASGRIFGQYAMGWYRQAPGKERELVASIRSGGSTNYADSVKGRFTISRDNAKNTVYLQMNSLKPADSAVYYCNRRSGRTSRFHDYGYWGQGTQVTVSS | high polyreactivity
QVQLVESGGRLVQAGGSLRLSCPDSGSTFILNAMGWYRQAHGKERELVATISSSVTSTYYADSVKWRFTISRDHAKNTVYLQMNSLKPEDTAVYYCNADYYTTSYLQRFYHYGVEYDYLGQGTQVTVSS | low polyreactivity
QVQLVESGGGLVQAGGSLRLSCAASGSIFKTNAMGWYRQAPGKERELVAGISNGGSTNYADSVKGRFTISRDNAKNTVYLQMNSLKPEDTAVYYCAAPYTSQTIPDYVRYFIEYDYWGQGTQVTVSS | low polyreactivity
QVQLVESGGGLVQAGGSLRLSCAASGIILYGYAMGWSRQAPGKERELVAAITKSGGSTYYADSVKGRFTISRDNAKNTVYLQMNSLKPEDTAVYYCAAKRWGIWYYGYRPDDYWGQGTQVTVSS | low polyreactivity
QVQLVESGGGLVQAGGSLRLSCAASGSIFRSYAMGWYRQAPGKERELVASISRRGGSTYYADSVKGRFTISRDNAKNTVYLQMNSLKPEDTAVYYCAADHYHGYWKYDYWGQGTQVTVSS | low polyreactivity

From the nanobody polyreactivity screen of Harvey et al. (2022)
